Experimental data published in patent US7976843B2, “Method for screening peptides for use in immunotherapy” (Institut National de la Santa et de la Recherche Medicale …, priority 2000, dated 2011).

Biological target: HLA A2.1 molecule (Homo sapiens, UniProt P04439, D140Y/D185E/D98H/E176V/E277Q/G131W/G231S/I119V/I121R/I166T/I218V/L300P/L318F/N151K/N90K/P208A/P217A/Q86G/Q94H/R138H/R169H/T345S)
Assay: Stability of the peptide/HLA A2.1 complex (DC50) on T2 cells, flow cytometry
Format: binding
Conditions: […]; arrow in neighbouring cell gives direction
Method: For each incubation time, the cells are then labeled, as indicated above, with the BB7.2 antibody, and analyzed by flow cytometry in order to evaluate the amount of peptide/HLA A2.1 complex present at their surface. […] The DC50 (dissociation complex: DC) is defined as being the time required for the loss of 50% of the HLA A2.1/peptide complexes stabilized at t=0.

GILGPVFTL [Flu M58, reference compound]
DC50 Y1-DC50 WT: =0 hours
